This passage reports peptide exchange yield results from patent US20200087363A1 (IMMATICS BIOTECHNOLOGIES, published 2020).

Where only a bound is given, the exact number is not on record here.

The test deals with T1, HLA-B*44:05 (human).
T1 construct: also called peptide-receptive MHC class I molecule
Briefly: UV peptide exchange, anti-b2m ELISA. In a few lines: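 Peptide-receptive HLA-B*44:05 monomers after UV-induced exchange were diluted 100-fold and captured on streptavidin-coated plates for 1 h at 37 °C. Bound complexes were detected with 2 µg/ml HRP-anti-β2m (1 h, 37 °C) and TMB, read at 450 nm. β2m signal reflects peptide-stabilized complex yield.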
Background: ELISA stands for enzyme-linked immunosorbent assay.

For the molecule AEIEADRSYQ, the peptide exchange yield lay within 20 to 50%.
The value for SESPIRISV was 50 to 75%.
For GEARGDQVDW, the peptide exchange yield is more than 75%.
In the case of MEVDPIGHLYIF, the peptide exchange yield is more than 75%.
The same measure for AEAEEAMKRL: 50 to 75%.
The same measure for NEIDIHSIYF: more than 75%.
The value for AEVTLNNTI was 50 to 75%; that for AELVGPVIPQDW was 50 to 75%; that for TEQSLYYRQW was 50 to 75%.
TEGGTQKTF returned a peptide exchange yield of 50 to 75%.
With SEAGLTANQY, the peptide exchange yield fell in the range of 50 to 75%.
The value for AEYSVHKI was 50 to 75%.
The value for ALEEGGGYIF was 10 to 20%; that for EDNPSGHTY was 20 to 50%; that for DENIQKFIW was 50 to 75%.
In turn, AAFEDAQGHIW registered a peptide exchange yield of more than 75%.
The value for TEGAVEVKY was 20 to 50%.
The same measure for SESDLVNFI: 50 to 75%; for SEYVHSSFSGF: 50 to 75%; for EEAVRSVAF: 50 to 75%.
The value for GEGTLRLSW was more than 75%; that for SEYVHSSF was 20 to 50%.
Regarding AEYSVHKITSTF, the peptide exchange yield is more than 75%.
EESLLSSWDF displayed a peptide exchange yield of 50 to 75%.
The value for AELEGALQKA was 20 to 50%; that for SEIDEKVTDL was 50 to 75%.
The value for AEVGDIIKVHF was 50 to 75%; that for TEFSNHINL was 50 to 75%.
The same measure for SLAELIAKDW: 20 to 50%; for TEFHMQFSY: more than 75%.
With SESMVESKF, the peptide exchange yield was 20 to 50%.
The value for QETLAESTW was 50 to 75%; that for KEDNPSGHTY was 50 to 75%; that for EEYQDSFERY was 20 to 50%.
The same measure for RLNEHPSNNW: 20 to 50%; for GEKATMQNL: 20 to 50%.
Regarding TEAQRLDCW, the peptide exchange yield fell in the range of 50 to 75%.
The same measure for KEPSQSCIAQY: 10 to 20%; for VEMTGKHQL: 20 to 50%.
The same measure for SEYPTKNYV: 20 to 50%; for AETSYVKVLEY: 50 to 75%; for QTLKAMVQAW: 50 to 75%.
The same measure for QEISAHRTEF: 50 to 75%; for EESLLSSW: 50 to 75%; for KEMDPSRQSY: 50 to 75%.
LETSCGSSTAY returned a peptide exchange yield of 10 to 20%.
On to SEATHIITI, for which the peptide exchange yield lay in the range of 50 to 75%.
The same measure for AEVGDIIKV: 20 to 50%.
The same measure for KEFYPVKEF: 20 to 50%.
